Data published in patent US20230134571A1 (INTERNATIONAL AIDS VACCINE INITIATIVE, published 2023).
Where a chain is given by its changes, count along the chain named.

Tests used:
Assay in all cases: cell-based or functional assay
[1] = target: HIV Env, isolate ZM109F.PB4 (HIV)
[2] = target: HIV Env, isolate X1254_C3 (HIV)
HIV Env, isolate CNE58 = HIV Env, isolate CNE58 (HIV)
HIV Env, isolate 249MB10 = HIV Env, isolate 249MB10 (HIV)
[3] = target: HIV Env, isolate A07412M1.vrc12 (HIV)
[4] = target: HIV Env, isolate ZM53M.PB12 (HIV)
[5] = target: HIV Env, isolate Ce0393_C3 (HIV)
[6] = target: HIV Env, isolate 3817.v2.c59 (HIV)
[7] = target: HIV Env, isolate 3016.v5.c45 (HIV)
[8] = target: HIV Env, isolate P0402_C2_11 (HIV)
HIV Env, isolate Du422.1 = HIV Env, isolate Du422.1 (HIV)
[9] = target: HIV Env, isolate ZM135M.PL10a (HIV)
[10] = target: HIV Env, isolate Ce2010_F5 (HIV)
[11] = target: HIV Env, isolate 1012_11_TC21_3257 (HIV)
[12] = target: HIV Env, isolate 6480.v4.c25 (HIV)
[13] = target: HIV Env of isolate R2184.c04 (clade AE) (HIV)
[14] = target: HIV Env of isolate HIV-0013095-2.11 (clade C) (HIV)
[15] = target: HIV Env of isolate T255-34 (clade AG) (HIV)
[16] = target: HIV Env of isolate Ce1176_A3 (clade C) (HIV)
[17] = target: HIV Env of isolate BJOX015000.11.5 (clade AE) (HIV)
[18] = target: HIV Env of isolate CNE20 (clade BC) (HIV)
[19] = target: HIV Env of isolate HIV-16845-2.22 (clade C) (HIV)
[20] = target: HIV Env of isolate 6540.v4.c1 (clade AC) (HIV)
[21] = target: HIV Env of isolate Du422.1 (clade C) (HIV)
[22] = target: HIV Env of isolate 0260.v5.c36 (clade A) (HIV)
[23] = target: HIV Env of isolate C1080.c03 (clade AE) (HIV)
[24] = target: HIV Env of isolate 620345.c01 (clade AE) (HIV)
[25] = target: HIV Env of isolate AC10.0.29 (clade B) (HIV)
[26] = target: HIV Env of isolate CNE5 (clade AE) (HIV)
[27] = target: HIV Env of isolate CNE21 (clade BC) (HIV)
[28] = target: HIV Env of isolate 6545.v4.c1 (clade AC) (HIV)
[29] = target: HIV Env of isolate 191955_A11 (clade A) (HIV)
[30] = target: HIV Env of isolate Q842.d12 (clade A) (HIV)
[31] = target: HIV Env of isolate HIV-16055-2.3 (clade C) (HIV)
[32] = target: HIV Env of isolate Ce704809221_1B3 (clade C) (HIV)
[33] = target: HIV Env of isolate Ce0393_C3 (clade C) (HIV)
[34] = target: HIV Env of isolate CAAN5342.A2 (clade B) (HIV)
[35] = target: HIV Env of isolate CNE58 (clade BC) (HIV)
[36] = target: HIV Env of isolate Ce703010054_2A2 (clade C) (HIV)
[37] = target: HIV Env of isolate ZM214M.PL15 (clade C) (HIV)
[38] = target: HIV Env of isolate 1394C9G1(Rev-) (clade C) (HIV)

B1: ePGDM9 (antibody, V domains shown)
VH: QAQLVQSGPEVRKPGTSVKVSCKNPGNTLTTYDLHWVRQVPGQGLQWMGWISHEGDKKVIVERFKAKVTIDWDRSTNTAYLQLSGLTSEDTAVYYCAKGSKHRLRDYALYDEDGALNWAVDVDYLANLEFWGQGTAVTVSS
VL: DIVLTQSPLSLSVTPGESASISCKSSQSLIHGDRNNYLAWYVQKPGRSPQLLIDLASERASGVPDRFSGSGSRKDFTLKISRVETEDVGTYYCMQGRESPWTFGQGTKVDIK
IC80 (µg/ml) with constrains [1]: 0.106 µg/mL | IC80 (µg/ml) with constrains [2]: 0.71 µg/mL | IC80 (µg/ml) with constrains (HIV Env, isolate CNE58): 0.008 µg/mL | IC80 (µg/ml) with constrains (HIV Env, isolate 249MB10): 0.028 µg/mL | IC80 (µg/ml) with constrains [3]: 0.103 µg/mL | IC80 (µg/ml) with constrains [4]: 0.026 µg/mL | IC80 (µg/ml) with constrains [5]: 0.017 µg/mL | IC80 (µg/ml) with constrains [6]: 0.64 µg/mL | IC80 (µg/ml) with constrains [7]: > 100 µg/mL | IC80 (µg/ml) with constrains [8]: 0.003 µg/mL | IC80 (µg/ml) with constrains (HIV Env, isolate Du422.1): 53.2 µg/mL | IC80 (µg/ml) with constrains [9]: > 100 µg/mL | IC80 (µg/ml) with constrains [10]: > 100 µg/mL | IC80 (µg/ml) with constrains [11]: 0.167 µg/mL | IC80 (µg/ml) with constrains [12]: > 100 µg/mL

B2: ePGDM5 (antibody, V domains shown)
VH: B1 VH
VL: B1 VL with I2F, S26D, Q27H, I30Q, S81D, T85A
IC80 (µg/ml) with constrains [1]: 0.121 µg/mL | IC80 (µg/ml) with constrains [2]: 0.869 µg/mL | IC80 (µg/ml) with constrains (HIV Env, isolate CNE58): 0.015 µg/mL | IC80 (µg/ml) with constrains (HIV Env, isolate 249MB10): 0.045 µg/mL | IC80 (µg/ml) with constrains [3]: 0.035 µg/mL | IC80 (µg/ml) with constrains [4]: 0.022 µg/mL | IC80 (µg/ml) with constrains [5]: 0.063 µg/mL | IC80 (µg/ml) with constrains [6]: 0.929 µg/mL | IC80 (µg/ml) with constrains [7]: > 100 µg/mL | IC80 (µg/ml) with constrains [8]: 0.015 µg/mL | IC80 (µg/ml) with constrains (HIV Env, isolate Du422.1): 34.6 µg/mL | IC80 (µg/ml) with constrains [9]: > 100 µg/mL | IC80 (µg/ml) with constrains [10]: > 100 µg/mL | IC80 (µg/ml) with constrains [11]: 0.305 µg/mL | IC80 (µg/ml) with constrains [12]: > 100 µg/mL

B3: PGDM1400 (antibody, V domains shown)
VH: B1 VH with A2V, Q3H, V5T, N24A, T30K, Q39S, E89G, E112D, A126S
VL: B1 VL with I2F, L9H, Q27H, D54Y, E58S, R73D
IC80 (µg/ml) with constrains [1]: 0.39 µg/mL | IC80 (µg/ml) with constrains [2]: > 100 µg/mL | IC80 (µg/ml) with constrains (HIV Env, isolate CNE58): 0.01 µg/mL | IC80 (µg/ml) with constrains (HIV Env, isolate 249MB10): 0.085 µg/mL | IC80 (µg/ml) with constrains [3]: 0.115 µg/mL | IC80 (µg/ml) with constrains [4]: 0.034 µg/mL | IC80 (µg/ml) with constrains [5]: 0.037 µg/mL | IC80 (µg/ml) with constrains [6]: > 100 µg/mL | IC80 (µg/ml) with constrains [7]: > 100 µg/mL | IC80 (µg/ml) with constrains [8]: 0.027 µg/mL | IC80 (µg/ml) with constrains (HIV Env, isolate Du422.1): > 100 µg/mL | IC80 (µg/ml) with constrains [9]: > 100 µg/mL | IC80 (µg/ml) with constrains [10]: > 100 µg/mL | IC80 (µg/ml) with constrains [11]: 0.303 µg/mL | IC80 (µg/ml) with constrains [12]: > 100 µg/mL

B4: ePGDM13 (antibody, V domains shown)
VH: B1 VH
VL: B1 VL with Q27H, I30Q, I53L, R73E
IC80 (µg/ml) with constrains [1]: 0.196 µg/mL | IC80 (µg/ml) with constrains [2]: 2.07 µg/mL | IC80 (µg/ml) with constrains (HIV Env, isolate CNE58): 0.014 µg/mL | IC80 (µg/ml) with constrains (HIV Env, isolate 249MB10): 0.13 µg/mL | IC80 (µg/ml) with constrains [3]: 0.118 µg/mL | IC80 (µg/ml) with constrains [4]: 0.022 µg/mL | IC80 (µg/ml) with constrains [5]: 0.022 µg/mL | IC80 (µg/ml) with constrains [6]: 55.9 µg/mL | IC80 (µg/ml) with constrains [7]: > 100 µg/mL | IC80 (µg/ml) with constrains [8]: 0.006 µg/mL | IC80 (µg/ml) with constrains (HIV Env, isolate Du422.1): > 100 µg/mL | IC80 (µg/ml) with constrains [9]: > 100 µg/mL | IC80 (µg/ml) with constrains [10]: > 100 µg/mL | IC80 (µg/ml) with constrains [11]: 0.26 µg/mL | IC80 (µg/ml) with constrains [12]: > 100 µg/mL

B5: PGDM1400 (antibody, V domains shown)
VH: B1 VH with A2V, Q3H, V5T, N24A, T30K, Q39S, E89G, E112D, A126S
VL: B1 VL with I2F, L9H, Q27H, D54Y, E58S, R73D
IC50 (µg/ml) with constrains [13]: 0.006 µg/mL | IC80 (µg/ml) with constrains [13]: 0.022 µg/mL | IC50 (µg/ml) with constrains [14]: > 100 µg/mL | IC50 (µg/ml) with constrains [15]: 0.046 µg/mL | IC80 (µg/ml) with constrains [15]: 0.182 µg/mL | IC50 (µg/ml) with constrains [16]: 0.526 µg/mL | IC50 (µg/ml) with constrains [17]: 1.05 µg/mL | IC80 (µg/ml) with constrains [17]: 4.21 µg/mL | IC50 (µg/ml) with constrains [18]: 0.005 µg/mL | IC50 (µg/ml) with constrains [19]: > 100 µg/mL | IC50 (µg/ml) with constrains [20]: 0.007 µg/mL | IC80 (µg/ml) with constrains [20]: 0.026 µg/mL | IC50 (µg/ml) with constrains [21]: 33.4 µg/mL | IC50 (µg/ml) with constrains [22]: 0.035 µg/mL | IC80 (µg/ml) with constrains [22]: 0.14 µg/mL | IC50 (µg/ml) with constrains [23]: 0.001 µg/mL | IC80 (µg/ml) with constrains [23]: 0.005 µg/mL | IC50 (µg/ml) with constrains [24]: > 100 µg/mL | IC80 (µg/ml) with constrains [24]: > 100 µg/mL | IC50 (µg/ml) with constrains [25]: 0.549 µg/mL | IC50 (µg/ml) with constrains [26]: 0.001 µg/mL | IC80 (µg/ml) with constrains [26]: 0.003 µg/mL | IC50 (µg/ml) with constrains [27]: 0.003 µg/mL | IC50 (µg/ml) with constrains [28]: 0.148 µg/mL | IC80 (µg/ml) with constrains [28]: 0.594 µg/mL | IC50 (µg/ml) with constrains [29]: 0.013 µg/mL | IC80 (µg/ml) with constrains [29]: 0.05 µg/mL | IC50 (µg/ml) with constrains [30]: > 100 µg/mL | IC80 (µg/ml) with constrains [30]: > 100 µg/mL | IC50 (µg/ml) with constrains [31]: 0.003 µg/mL | IC50 (µg/ml) with constrains [32]: 0.32 µg/mL | IC50 (µg/ml) with constrains [33]: 0.009 µg/mL | IC50 (µg/ml) with constrains [34]: > 100 µg/mL | IC50 (µg/ml) with constrains [35]: 0.003 µg/mL | IC50 (µg/ml) with constrains [36]: 0.014 µg/mL | IC50 (µg/ml) with constrains [37]: > 100 µg/mL | IC50 (µg/ml) with constrains [38]: 0.003 µg/mL
